Reference: patent US20130336885A1 (Genentech, published 2013)
Positions count from the first letter of the chain named.

T1: human LgR5 ECD (amino acids 22-557 fused to His-Fc expressed in a baculovirus system, or amino acids 22-558 … (human, UniProt O75473 22-557))
T1 construct: not shown: C-terminal His-tagged Fc
T1 sequence: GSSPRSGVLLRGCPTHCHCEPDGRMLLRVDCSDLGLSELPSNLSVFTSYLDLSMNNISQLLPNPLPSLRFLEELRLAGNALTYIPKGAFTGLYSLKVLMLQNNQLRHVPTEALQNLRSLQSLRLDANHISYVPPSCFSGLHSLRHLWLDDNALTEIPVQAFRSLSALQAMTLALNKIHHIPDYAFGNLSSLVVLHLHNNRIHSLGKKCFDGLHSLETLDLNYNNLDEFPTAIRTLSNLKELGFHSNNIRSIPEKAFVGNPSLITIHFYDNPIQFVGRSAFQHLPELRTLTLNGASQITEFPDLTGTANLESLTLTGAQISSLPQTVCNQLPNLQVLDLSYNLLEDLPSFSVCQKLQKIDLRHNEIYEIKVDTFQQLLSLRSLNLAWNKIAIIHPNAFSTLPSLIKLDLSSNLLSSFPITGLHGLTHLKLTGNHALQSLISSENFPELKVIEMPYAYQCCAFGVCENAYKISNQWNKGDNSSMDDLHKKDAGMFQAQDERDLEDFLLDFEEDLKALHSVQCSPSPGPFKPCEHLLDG

T2: gD epitope-tagged mouse LgR5 expressed on stably transfected 293 cells (mouse, UniProt Q9Z1P4 22-907)
T2 construct: also called gD-tagged mouse LgR5
T2 sequence: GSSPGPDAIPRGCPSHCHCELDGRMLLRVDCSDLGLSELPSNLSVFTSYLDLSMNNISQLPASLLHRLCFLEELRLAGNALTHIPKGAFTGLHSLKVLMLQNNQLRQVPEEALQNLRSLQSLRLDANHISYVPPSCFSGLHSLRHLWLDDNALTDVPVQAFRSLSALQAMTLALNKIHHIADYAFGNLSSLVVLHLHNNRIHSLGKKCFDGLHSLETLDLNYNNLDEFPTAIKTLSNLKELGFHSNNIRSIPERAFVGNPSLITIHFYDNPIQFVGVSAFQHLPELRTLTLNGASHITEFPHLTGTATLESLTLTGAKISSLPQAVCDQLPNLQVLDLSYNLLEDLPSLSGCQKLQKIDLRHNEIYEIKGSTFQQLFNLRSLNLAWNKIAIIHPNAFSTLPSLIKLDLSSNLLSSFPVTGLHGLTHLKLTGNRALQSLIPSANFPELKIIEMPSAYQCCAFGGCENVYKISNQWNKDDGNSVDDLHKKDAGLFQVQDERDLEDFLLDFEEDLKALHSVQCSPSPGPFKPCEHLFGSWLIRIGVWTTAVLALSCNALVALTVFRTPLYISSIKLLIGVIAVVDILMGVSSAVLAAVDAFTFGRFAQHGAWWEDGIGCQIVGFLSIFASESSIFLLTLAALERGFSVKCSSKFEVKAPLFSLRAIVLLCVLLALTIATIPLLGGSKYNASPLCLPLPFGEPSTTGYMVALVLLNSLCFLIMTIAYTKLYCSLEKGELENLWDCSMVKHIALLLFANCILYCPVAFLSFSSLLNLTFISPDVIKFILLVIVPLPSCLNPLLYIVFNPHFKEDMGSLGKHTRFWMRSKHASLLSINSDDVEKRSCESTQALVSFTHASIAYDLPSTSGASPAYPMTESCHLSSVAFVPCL

T3: gD epitope-tagged LgR5 22-323 (amino acids 22-323 of SEQ ID NO: 67) with a C-terminal GPI anchor on … (human, UniProt O75473 22-323, C-terminal GPI anchor)
T3 sequence: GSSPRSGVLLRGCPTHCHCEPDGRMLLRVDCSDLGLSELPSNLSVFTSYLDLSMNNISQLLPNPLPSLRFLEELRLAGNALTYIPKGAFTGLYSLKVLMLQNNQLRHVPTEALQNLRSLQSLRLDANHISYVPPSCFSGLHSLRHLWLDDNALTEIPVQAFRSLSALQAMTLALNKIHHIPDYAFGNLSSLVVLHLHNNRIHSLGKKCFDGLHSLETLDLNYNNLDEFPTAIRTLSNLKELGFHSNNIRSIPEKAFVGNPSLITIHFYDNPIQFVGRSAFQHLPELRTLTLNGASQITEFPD

T4: gD epitope-tagged LgR5 22-123 (amino acids 22-123 of SEQ ID NO: 67) with a C-terminal GPI anchor on … (human, UniProt O75473 22-123, C-terminal GPI anchor)
T4 sequence: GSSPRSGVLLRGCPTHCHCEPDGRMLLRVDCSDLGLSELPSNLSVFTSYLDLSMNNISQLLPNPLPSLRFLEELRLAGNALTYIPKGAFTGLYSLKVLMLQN

T5: gD epitope-tagged LgR5 424-907 (amino acids 424-907 of SEQ ID NO: 67) on transiently transfected 293 cells (human, UniProt O75473 424-907)
T5 sequence: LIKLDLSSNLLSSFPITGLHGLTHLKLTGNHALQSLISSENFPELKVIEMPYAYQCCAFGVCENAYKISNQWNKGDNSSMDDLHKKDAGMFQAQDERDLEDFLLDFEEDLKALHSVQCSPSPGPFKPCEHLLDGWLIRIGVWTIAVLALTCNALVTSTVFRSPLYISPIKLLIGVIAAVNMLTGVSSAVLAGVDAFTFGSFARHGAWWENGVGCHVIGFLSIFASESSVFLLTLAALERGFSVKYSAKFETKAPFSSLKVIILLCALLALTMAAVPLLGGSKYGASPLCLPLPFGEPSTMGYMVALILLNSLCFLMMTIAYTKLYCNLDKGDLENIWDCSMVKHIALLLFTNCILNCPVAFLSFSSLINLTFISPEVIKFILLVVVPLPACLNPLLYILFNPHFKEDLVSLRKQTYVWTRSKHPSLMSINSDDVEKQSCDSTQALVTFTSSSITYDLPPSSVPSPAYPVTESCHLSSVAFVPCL

B1: monoclonal antibody 2H6 (antibody, V domains shown)
VH: EVQLQQSGPELVKPGTSMKISCKASGYSFTGYTMNWVKQSHKNGLEWIGLINCYNGGTNYNQKFKGKATLTVDKSSSTAFMELLSLTSEDSAVYYCARGGSTMITPRFAYWGQGTLVTVSS
VL: DIVMTQSPSSLTVTAGEKVTMSCKSSQSLLNSGNQKNYLTWFQQKPGQPPKLLIYWASTRESGVPDRFTGSGSGTDFTLTISNVQAEDLAVYYCQNDYSFPFTFGQGTKVEIKR
notes: The variable domains are the same in both forms; also called m2H6; mu2H6
B2: monoclonal antibody 3G12 (antibody, V domains shown)
VH: QVQLQQPGAEMVKPGASVKLSCKASVDTFNSYWMHWVKQRPGQGLEWIGEINPSNGRTNYIEKFKNRATVTVDKSSSTAFMQLSSLTSEDSAVYYCATGWYFDVWGAGTTVTVSS
VL: DVVMTQTPLSLPVSLGDQASISCRSSQSLVHSNGNTYLQWYLQKPGQSPKLLIYKVSNRFSGVPDRFSGSGSGTDFTLKISRVEAEDLGIYFCSQSTHFPYTFGGGTKLEIKR
notes: The variable domains are the same in both forms; also called m3G12; mu3G12
B3: h8E11.v3 (antibody, V domains shown)
VH: EVQLVQSGAEVKKPGASVKVSCKASGYTFSAYWIEWVRQAPGQGLEWIGEILPGSDSTDYNEKFKVRVTITSDTSTSTVYLELSSLRSEDTAVYYCARGGHYGSLDYWGQGTLVTVSS
VL: DIVMTQSPDSLAVSLGERATINCRASESVDNYGNSFMHWYQQKPGQPPKLLIYLASNLESGVPDRFSGSGSRTDFTLTISSLQAEDVAVYYCQQNYEDPFTFGQGTKVEIKR
notes: VH CDR graft + 71S/78V; also called hu8E11.v3
B4: h8E11.v1 (antibody, V domains shown)
VH: B3 VH
VL: B3 VL with R72G
notes: VH CDR graft + 71S/78V; also called hu8E11.v1
B5: h8E11.v4 (antibody, V domains shown)
VH: B3 VH with V68A, I70F
VL: B3 VL
notes: VH CDR graft + 67A/69F/71S/78V; also called hu8E11.v4
B6: h8E11.v5 (antibody, V domains shown)
VH: B3 VH with S72R, V79A
VL: B3 VL with R72G
notes: VH CDR graft + 71R/78A; also called hu8E11.v5
B7: h8E11.v6 (antibody, V domains shown)
VH: B3 VH with S72A, V79A
VL: B3 VL with R72G
notes: VH CDR graft + 71A/78A; also called hu8E11.v6
B8: h8E11.v7 (antibody, V domains shown)
VH: B3 VH with S72R, V79A
VL: B3 VL
notes: VH CDR graft + 71R/78A; also called hu8E11.v7
B9: h8E11.v8 (antibody, V domains shown)
VH: B3 VH with S72A, V79A
VL: B3 VL
notes: VH CDR graft + 71A/78A; also called hu8E11.v8

Molecular target: T1, human LgR5 ECD (amino acids 22-557 …)
Assay: SPR (BIAcore-3000), antibody captured by anti-human Fc, LgR5 ECD-Fc injected

| Binder | Kd [µM] |
| --- | --- |
| B1 | 0.208 |
| B2 | 0.072 |

Molecular target: T2, gD epitope-tagged mouse LgR5 expressed …
Assay: FACS on 293 cells stably transfected with gD epitope-tagged LgR5, 10 ug/ml antibody, R-Phycoerythrin goat anti-human detection
Description: Monoclonal antibodies were tested to determine if they cross-react with LgR5 from species other than human. […] Residues that are identical among all four species are indicated by asterisks (*). […] YW353 antibody binds human and cynomolgus monkey LgR5, but not rat or mouse LgR5. Ch8E11 and hu8E11.v2 antibodies bind all four species of LgR5, although binding to rat LgR5 is not as strong as binding to human, cynomolgus monkey, or mouse LgR5. 2H6 antibody binds to human and mouse LgR5, and was not tested for binding to cynomolgus monkey or rat LgR5.

| Binder | binding result |
| --- | --- |
| B1 | binds |
| B2 | binds |

Molecular target: T1, human LgR5 ECD (amino acids 22-557 …)
Assay: BIAcore-3000 SPR, IgG captured on goat anti-human Fc, human LgR5 ECD-Fc injected, 25 C, 1:1 Langmuir model
Description: The affinity of each 8E11 IgG variant for human LgR5 was determined by surface plasmon resonance using a BIAcore™-3000. BIAcore™ research grade CMS chips were activated with 1-ethyl-3-(3-dimethylaminopropyl) carbodiimide (EDC) and N-hydroxysuccinimide (NHS) reagents according to the supplier's instructions. Goat anti-human Fc IgGs were coupled to the chips to achieve approximately 10,000 response units (RU) in each flow cell. Unreacted coupling groups were blocked with 1M ethanolamine. For kinetics measurements, anti-LGR5 antibodies were captured to achieve approximately 300 RU. Two-fold serial dilutions of human LgR5ECD (amino acids 22-557 fused to His-Fc expressed in a baculovirus system, or amino acids 22-558 fused to Fc expressed from CHO cells; 125 nM to 0.49 nM) were injected in HBS-P buffer (0.01M HEPES pH7.4, 0.15M NaCl, 0.005% surfactant P20) at 25° C. with a flow rate of 30 μl/min. Association rates (kₒₙ) and dissociation rates (koff) were calculated using a 1:1 Langmuir binding model (BIAcore™ Evaluation Software version 3.2). The equilibrium dissociation constant (Kd) was calculated as the ratio koff/kₒₙ.

| Binder | Kd [µM] | koff [s⁻¹] | kon [M⁻¹ s⁻¹] |
| --- | --- | --- | --- |
| B3 | 0.00473 | 0.00053 | 112000 |
| B4 | 0.00505 | 0.000772 | 153000 |
| B5 | 0.00363 | 0.000922 | 254000 |
| B6 | 0.0143 | 0.000933 | 65000 |
| B7 | 0.0141 | 0.00202 | 143000 |
| B8 | 0.0221 | 0.00258 | 117000 |
| B9 | 0.00897 | 0.00217 | 242000 |

Molecular target: T3, gD epitope-tagged LgR5 22-323 (amino …)
Assay: FACS on transiently transfected 293 cells

| Binder | binding result |
| --- | --- |
| B1 | no binding (tested: 10 µg/ml) |
| B2 | no binding (tested: 10 µg/ml) |

Molecular target: T4, gD epitope-tagged LgR5 22-123 (amino …)
Assay: FACS on transiently transfected 293 cells

| Binder | binding result |
| --- | --- |
| B1 | no binding (tested: 10 µg/ml) |
| B2 | no binding (tested: 10 µg/ml) |

Molecular target: T5, gD epitope-tagged LgR5 424-907 (amino …)
Assay: FACS on transiently transfected 293 cells

| Binder | binding result |
| --- | --- |
| B1 | no binding (tested: 10 µg/ml) |
| B2 | no binding (tested: 10 µg/ml) |
